± gives the uncertainty stated by the source.

The series is described as follows: amyloid nucleation score (Sup35N fusion, yeast selection) (log enrichment); library NNK3; higher = more nucleation; inactive = no reads after selection. The method, boiled down:
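Random libraries were run with three technical output replicates. In each, psi-negative yeast expressing Sup35N fused to peptides of 20 random codons were induced 24 hours with 100 μM copper sulfate and grown 7 days at 30°C on medium lacking adenine and uracil, and input and output plasmid inserts were Illumina-sequenced. The nucleation score is the DiMSum log enrichment of output over input reads, centred on the mode score of non-aggregating sequences, and sequences under 100 input reads were excluded.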
In turn, VLIYLDRCRNFDEKGFHNFC came in with an amyloid nucleation score of 0.448 ± 0.21.
VLKMAACNPGTNSLSTPGCG: the amyloid nucleation score result is “inactive”.
Next, VLNFWGAVFPIIMLFYESVY: 2.03 ± 0.096; VLPNIQFFYCMCWVMLYLPF: “inactive”; VLRFFM: 0.399 ± 0.23.
On to VLRLFDTNPHDSREVAYFYF, for which the amyloid nucleation score result is “inactive”.
Next, VLRRLGWICL: “inactive”.
Next, VLSHSHGSWSRESYKLLRLD: “inactive”; VLSRSKRTGISNYLCNLCEI: “inactive”.
The result for VLSTVFKAKPNHNRAFMG reads 0.063 ± 0.78.
Regarding VLTRTTRLTHSTTSICLLVL, the amyloid nucleation score result is “inactive”.
The result for VLVSVILYIYYDDCFYSWSF reads “inactive”; that for VMAYRHAGRRFSDPKSIKIS, “inactive”.
The result for VMKNSTIILSFTFLSPKVSF reads 2.16 ± 0.069; that for VMMDWILQIVAYSSDHTGSK, “inactive”; that for VMNLEPRSHVWYVTVFSHAS, 1.68 ± 0.096.
Next, VMRPIPMSLYLNNFNES: “inactive”.
In the case of VMVAMTFNWHDALILWDGMV, the amyloid nucleation score entry is “inactive”.
The result for VMVSPPFTYWSRYVDYEYGE reads “inactive”; that for VNCTNLRKPLQLTQ, “inactive”; that for VNCWTNYRYQGSDFIMSYIR, “inactive”.
The result for VNEPDSVFMT reads “inactive”; that for VNFLSDIVNFGCIVWFPPKI, 2.32 ± 0.087; that for VNFSYNYVGWCFMQLCSAAN, 1.74 ± 0.086.
Next, VNGFFLVACTCSYFNNRSSW: 1.57 ± 0.12; VNIGTIWETDKCMEIFCAAA: “inactive”.
For the substance VNILVFLCFAPSLSSRYWWL, the amyloid nucleation score was 2.28 ± 0.081.
Take VNIYGCSYVLHPGCCNGESR: the amyloid nucleation score stood at 2.84 ± 0.073.
VNLEYYV: the amyloid nucleation score entry was “inactive”.
Next, VNMISCVYFDMSIERTDEMI: 0.801 ± 0.19.
Next, VNNVQCLYDAVREDSRWYWG: “inactive”; VNPCLYGPYSSNNCSRSYFV: “inactive”; VNQLPRVSGAPIGLLWVCVK: “inactive”.
Consider VNTSINVYRYPFRCRSYRMH, for which the amyloid nucleation score amounted to 0.833 ± 0.085.
The result for VPFVGLLSLALAFYSIKNSN reads 0.921 ± 0.23; that for VPGFGVLACCGQVLLFSHLF, “inactive”; that for VPGYLWECS, “inactive”.
Consider VPKFVMDMIL, for which the amyloid nucleation score entry was “inactive”.
Next, VPLTRSKYYFRSWRWIDCGG: “inactive”.
As to VPNSRIVTREGCWESACGIR, the amyloid nucleation score result was “inactive”.
The result for VPTMMRVR reads “inactive”; that for VQGIRFRELFGRPAVRVVWH, “inactive”.
Next, VQLIWDFYSCSN: “inactive”; VQSFGPNFD: “inactive”.
Next, VQVIRFFWIMGLTGWTRELP: “inactive”; VQWSEMTAFTGFFSVYISSG: “inactive”.
As for VRCSR, the amyloid nucleation score entry was “inactive”.
The result for VRDQLRVTLVRSENGIHAHY reads “inactive”.
Next, VRDRCRIHCAYNRSKGTVSN: “inactive”.
Next, VRGKRTSLWDIKVDYSPDTV: “inactive”; VRLSVMG: “inactive”; VRNRSFGTALDNELLNLRPR: “inactive”.
On to VRNYGLDFRRACGWT, for which the amyloid nucleation score result was “inactive”.
The result for VRPELMALTDI reads “inactive”; that for VRRIIML, “inactive”; that for VRSLDNQLSVDFFFVGPVGF, 1.3 ± 0.14.
VRSRMSNWFNHPTVFDRLWA came in with an amyloid nucleation score of 0.547 ± 0.2.
The result for VRSVRGADELDLICHRLSRN reads “inactive”.
As for VRVLFGPFYYVFGSYLIGLV, the amyloid nucleation score result is “inactive”.
For VRYVSFAEFSWGLRFSVSRR, the amyloid nucleation score result is “inactive”.
Substance VSCSPMYEEYRHGNLAEYNE displayed an amyloid nucleation score of -0.559 ± 0.94.
VSDYYDKYGLYFCWFWDGYK: the amyloid nucleation score result was “inactive”.
On to VSGLDWFM, for which the amyloid nucleation score result is “inactive”.
In the case of VSGRWFTMWSGFSLCFALSG, the amyloid nucleation score was determined as 0.062 ± 0.46.
Next, VSGSKWQLREGVAKYMMCRY: “inactive”; VSHLAQHCNRLLLVSMLLGA: “inactive”; VSHRYFTGRMIALIRGDCLV: “inactive”.
The result for VSHSAFVLNSCERE reads “inactive”.
As to VSHTIKAILFGFRRQDHLYF, the amyloid nucleation score entry is “inactive”.
Consider VSINRRLFCLLGDDFTS, for which the amyloid nucleation score entry is “inactive”.
The result for VSKLWSYLVLYPHWV reads “inactive”.
Next, VSKYIVSHIASSWSWGQWVL: “inactive”; VSLKVIDKNFNFHVMYGCID: “inactive”; VSLKYSTKKPWLKTDHPCWI: “inactive”.
Next, VSMRSTYTFG: 0.597 ± 0.51; VSNECVPWAPYGIGGF: “inactive”.
Consider VSQYSVLGVAWSELFRTVD, for which the amyloid nucleation score is -0.064 ± 0.26.
The result for VSRMARYRLLTYRSAFNSML reads -0.605 ± 1.2.
As to VSSAYLKCSFLKNLAVSLYG, the amyloid nucleation score result is “inactive”.
The result for VSSLR reads “inactive”; that for VSSTALGGNNSICHLSPFYT, “inactive”.
Next, VSTSFDFKWNLSLGIWFMVI: “inactive”; VSVYKNVAFFISWI: 1.58 ± 0.09.
VSWHNILMWTRTPL: the amyloid nucleation score entry is “inactive”.
The result for VSWYCCTFAAFILWNSSWCI reads “inactive”; that for VSYNFGYAYECLGYVRFV, 0.572 ± 0.36; that for VTASSPDLIGGVHMEWRLTC, “inactive”.
Next, VTCSRSLRLSKMFPNKMFLI: “inactive”; VTGLCSDTHRVSYEFRLPRK: “inactive”.
The result for VTHGSVCFTTIYRTIWRFNR reads “inactive”; that for VTICISPAHLFAS, “inactive”.
On to VTILYASASMESLSLGLCGT, for which the amyloid nucleation score entry is “inactive”.
Next, VTLDEFRIISHCSYSFCYEG: “inactive”.
Next, VTLLWFISPFMMHWWVQRNG: -0.191 ± 1; VTLMILKGVFKFM: -0.136 ± 1.
Next, VTLTN: “inactive”; VTPVFMIWAS: “inactive”.
Turning to VTRQLYVMGFVGHDEEGVVS, the amyloid nucleation score result was “inactive”.
The result for VVCFLYIRSYNQGLCRSYFR reads 2.29 ± 0.091; that for VVDFSTYWY, “inactive”.
Next, VVDKILITINRSLLLSGADN: “inactive”; VVGIKV: “inactive”.
Consider VVIIK, for which the amyloid nucleation score entry is “inactive”.
Next, VVLAMTHSYRNFKMFRDHYH: 0.957 ± 0.12; VVLDYVSYAVIHGWEM: “inactive”; VVLFKISSYPRHIHFGFHLL: “inactive”.
Substance VVLSWT gave an amyloid nucleation score of -0.477 ± 1.1.
Next, VVMACGFLGKRGDSGCLLVM: “inactive”; VVMWQRRLRYGPKERNNGKV: -0.067 ± 0.4; VVMYIRANPTDIYSYTLQPR: 1.56 ± 0.12.
Next, VVSLRQLRW: “inactive”; VVTASYWLLCLSLYFSAS: “inactive”; VVTNG: 0.408 ± 0.17.
Next, VVWASV: “inactive”; VVWDGMQIGSWPQ: “inactive”; VVWLDNKDVLTWHARCLCPM: “inactive”.
VVWLQFGMEVKSSFSMTSKT: the amyloid nucleation score result is “inactive”.
Next, VVWNMYKFKACWYRDVTPLF: “inactive”.
The result for VVYDPVICDGWALDGGVGAR reads “inactive”; that for VWETKMTLLINSKNYFVGFW, “inactive”.
VWGIRFLLVWNRGHAGYSLN: the amyloid nucleation score entry is “inactive”.
The result for VWKIHYCFDVFIMV reads “inactive”; that for VWLFVSSMEYTNGTYQHHMM, “inactive”.
Next, VWLILRFMWAVVRTNRSNLD: “inactive”; VWMIPISCKSQFLFEWYGHY: 1.12 ± 0.18.
Next, VWQYNDGSYCVVMYVSSSDY: 1.06 ± 0.19.
Consider VWRHQDLGARAKAASHG, for which the amyloid nucleation score entry is “inactive”.
Next, VWSFGLLVS: -0.17 ± 1.1; VWTLAAVYYIIVRYSHKIRK: “inactive”.
Next, VWVFKTNFVFRVQLGHSLGC: 1.46 ± 0.094; VYCPELLSRCGQVGSTCCDR: “inactive”.

These data come from the supplement of paper PMC12042874.
